Data published in patent US20150290329A1.

What was measured:
[1] = molecular target: 8-arm-PEG-P1 (40 kDa); experiment: cell-based or functional assay
[2] = molecular target: 8-arm-PEG-P2 (20 kDa); experiment: cell-based or functional assay
Chain of 8-arm-PEG-P2 (20 kDa) (peptide, as listed by the source): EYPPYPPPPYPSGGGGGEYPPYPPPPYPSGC

C7 recombinant protein polymer (seven repeats of the CC43 WW domain) (designed binder)
storage modulus G′ of the hydrogel 8P1-40k [1]: 3.9 Pa | storage modulus G′ of the hydrogel 8P2-20k [2]: 15 Pa
